Test results: paper PMC8108516 (Molecular Biology of the Cell, 2021)

Tests used:
Assay in all cases: pull-down
GST tagged Pom1^FL = target: T1, GST tagged Pom1^FL (S. pombe, UniProt Q09690 1-1087)
T1 sequence (looked up): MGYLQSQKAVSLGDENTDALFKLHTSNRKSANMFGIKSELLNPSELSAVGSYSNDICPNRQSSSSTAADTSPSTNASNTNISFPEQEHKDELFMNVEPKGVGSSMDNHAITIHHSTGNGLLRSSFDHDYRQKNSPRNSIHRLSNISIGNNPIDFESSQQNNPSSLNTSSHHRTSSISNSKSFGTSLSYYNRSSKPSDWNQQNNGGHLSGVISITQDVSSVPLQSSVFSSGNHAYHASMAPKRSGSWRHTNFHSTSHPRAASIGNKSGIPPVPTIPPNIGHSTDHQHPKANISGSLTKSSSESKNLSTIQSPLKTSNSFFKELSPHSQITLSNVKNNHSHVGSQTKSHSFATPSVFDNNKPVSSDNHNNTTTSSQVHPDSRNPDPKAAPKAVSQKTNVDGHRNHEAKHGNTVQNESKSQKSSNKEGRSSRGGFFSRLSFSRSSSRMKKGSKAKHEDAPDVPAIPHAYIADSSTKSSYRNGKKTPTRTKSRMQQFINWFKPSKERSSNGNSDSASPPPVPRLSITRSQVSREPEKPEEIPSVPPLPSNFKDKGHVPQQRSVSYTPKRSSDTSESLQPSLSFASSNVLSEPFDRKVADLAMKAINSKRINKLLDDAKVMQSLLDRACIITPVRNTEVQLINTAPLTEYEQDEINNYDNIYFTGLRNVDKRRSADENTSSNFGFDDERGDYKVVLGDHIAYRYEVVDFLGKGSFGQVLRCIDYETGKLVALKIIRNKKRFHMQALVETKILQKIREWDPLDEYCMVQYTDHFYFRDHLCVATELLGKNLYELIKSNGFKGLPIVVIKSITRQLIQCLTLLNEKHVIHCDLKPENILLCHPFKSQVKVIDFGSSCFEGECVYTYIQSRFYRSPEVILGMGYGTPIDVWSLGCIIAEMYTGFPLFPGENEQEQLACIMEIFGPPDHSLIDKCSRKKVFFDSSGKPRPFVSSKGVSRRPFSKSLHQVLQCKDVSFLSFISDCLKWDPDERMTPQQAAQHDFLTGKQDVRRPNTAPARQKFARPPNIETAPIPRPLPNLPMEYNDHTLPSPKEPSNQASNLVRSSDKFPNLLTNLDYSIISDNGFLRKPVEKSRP

[1] = target: T2, GST tagged Pom1^aa605-1087 (S. pombe, UniProt Q09690 605-1087)
T2 sequence (looked up): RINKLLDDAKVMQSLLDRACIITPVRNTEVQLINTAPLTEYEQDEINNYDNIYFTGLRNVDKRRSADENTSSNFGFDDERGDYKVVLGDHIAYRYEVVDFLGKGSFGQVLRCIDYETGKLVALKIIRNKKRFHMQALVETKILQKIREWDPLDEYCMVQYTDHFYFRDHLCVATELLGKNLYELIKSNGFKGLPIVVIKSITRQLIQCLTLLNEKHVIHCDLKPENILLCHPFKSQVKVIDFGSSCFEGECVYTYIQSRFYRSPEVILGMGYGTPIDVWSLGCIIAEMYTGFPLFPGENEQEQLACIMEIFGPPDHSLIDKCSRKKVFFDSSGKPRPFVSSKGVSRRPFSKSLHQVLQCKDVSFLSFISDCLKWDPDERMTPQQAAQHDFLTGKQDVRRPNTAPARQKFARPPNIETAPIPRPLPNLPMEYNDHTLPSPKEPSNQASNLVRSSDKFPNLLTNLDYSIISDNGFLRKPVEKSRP

GST tagged Pom1^Δaa305N = target: T3, GST tagged Pom1^Δaa305N (S. pombe, UniProt Q09690 306-1087)
T3 sequence (looked up): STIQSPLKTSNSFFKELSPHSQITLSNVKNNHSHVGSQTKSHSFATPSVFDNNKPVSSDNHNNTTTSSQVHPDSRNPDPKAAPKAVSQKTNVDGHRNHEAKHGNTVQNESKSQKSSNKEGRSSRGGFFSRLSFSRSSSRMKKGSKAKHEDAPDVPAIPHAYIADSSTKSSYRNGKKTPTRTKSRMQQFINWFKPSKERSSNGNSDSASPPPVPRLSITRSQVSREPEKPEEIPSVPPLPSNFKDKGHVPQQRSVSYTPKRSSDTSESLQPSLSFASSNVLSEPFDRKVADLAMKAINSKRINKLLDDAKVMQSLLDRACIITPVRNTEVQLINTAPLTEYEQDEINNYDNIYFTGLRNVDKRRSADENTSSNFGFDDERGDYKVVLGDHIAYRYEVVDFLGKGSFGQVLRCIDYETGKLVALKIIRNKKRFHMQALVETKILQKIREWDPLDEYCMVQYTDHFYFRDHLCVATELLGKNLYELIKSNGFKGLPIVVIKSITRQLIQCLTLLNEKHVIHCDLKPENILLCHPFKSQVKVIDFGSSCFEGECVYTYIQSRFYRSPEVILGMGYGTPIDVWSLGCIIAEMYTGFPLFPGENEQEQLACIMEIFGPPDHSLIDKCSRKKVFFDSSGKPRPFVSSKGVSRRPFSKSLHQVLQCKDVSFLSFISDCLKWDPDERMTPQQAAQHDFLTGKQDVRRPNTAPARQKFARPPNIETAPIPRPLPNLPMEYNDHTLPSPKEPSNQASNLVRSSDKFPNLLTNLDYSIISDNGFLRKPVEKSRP

Measured: binding result

B1: MBP-tagged Ptc1^FL (enzyme, S. pombe, UniProt P40371 1-347, looked up)
chain: MKGSHPNAGSLLEPLHKLNPFSENSTSGHRKNASDHSADGETRPIAIEMKDSKGNTVPVGNSRPSKASNWLAGLMEDKNQRWRRSMEDTHICLYDFGGNQDDGFVAVYDGHAGIQASDYCQKNLHKVLLEKVRNEPDRLVTDLMDETFVEVNSKIAKATHNDICGCTAAVAFFRYEKNRTRRVLYTANAGDARIVLCRDGKAIRLSYDHKGSDANESRRVTQLGGLMVQNRINGVLAVTRALGDTYLKELVSAHPFTTETRIWNGHDEFFIIACDGLWDVVSDQEAVDFVRNFVSPREAAVRLVEFALKRLSTDNITCIVVNLTRNPGDLDDSGLTADNDSYSNDYY
binds: all assays above
